In patent US6323185, “Anti-viral guanosine-rich oligonucleotides and method of treating HIV” (The United States of America as represented by the …):

What was measured:
[1] = target: HIV-1 integrase wild-type (IN1-288) (HIV-1, UniProt P12497 P12497:1148-1435); assay: UV crosslinking, about 39 kDa complex; not competed by excess T30177 added after preincubation; settings: label: 5'-32P
[2] = target: HIV-1 integrase wild-type (IN1-288) (HIV-1, UniProt P12497 P12497:1148-1435); assay: inhibition; 3'-processing; strand transfer 0.046 uM; Table D-1 79 nM / 49 nM; FIG. 30 55 nM; Mn; settings: intramolecular G4 (G-octet)
[3] = target: T1, HIV-1 reverse transcriptase (HIV-1 (BH10), UniProt P03366;P03366 P03366:600-1159,P03366:600-1039); assay: inhibition; gapped duplex DNA template; duplicate 10.0 uM; settings: intramolecular G4 (G-octet)
[4] = target: T1, HIV-1 reverse transcriptase; assay: inhibition; primed ribosomal RNA template; duplicate 0.36 uM; settings: intramolecular G4 (G-octet)
[5] = target: T1, HIV-1 reverse transcriptase; assay: inhibition; poly(rA).p(dT)12-18 template; duplicate 4.2 uM; settings: intramolecular G4 (G-octet)
[6] = target: T2, gp120 envelope glycoprotein (HIV-1, UniProt P04578 P04578:33-511); assay: competition; ID50, gp120/CD4 ELISA; PD oligos did not inhibit V3 Mab binding; settings: tags: gp120 capture ELISA kit
[7] = target: CD4 (UniProt P01730 P01730:26-396); assay: competition; ID50, oligo with immobilized CD4; settings: tags: immobilized, gp120 capture ELISA kit
[8] = target: T2, gp120 envelope glycoprotein; assay: competition; ID50, inhibition of gp120 binding to CD4, oligo preincubated with gp120; settings: tags: gp120 capture ELISA kit

B1: HIV-1 U5 LTR 21-mer duplex (AE118/AE117) (dsDNA)
DNA 1: GTGTGGAAAATCTCTAGCAGT
DNA 2: ACTGCTAGAGATTTTCCACAC
[1]
  binding result: binds

## GTGGTGGGTGGGTGGGT (ssDNA, PS at first and last internucleoside linkages, 3'-OH) [T30177 (AR177, Zintevir)]
[2]
  IC50: 92 nM
[3]
  IC50: 8 µM
[4]
  IC50: 1200 nM
[5]
  IC50: 11 µM

## GTGGTGGGTGGGTGGGTGGTGGGTGGTGGTTGTGGGTGGGTGGTG (ssDNA, phosphodiester) [I100-07]
[6]
  IC50: 800 nM
[7]
  IC50: 4.25 µM

## GTTGGGGGTTGTTGGTGGGGTGGTGG (ssDNA, phosphodiester) [I100-00]
[8]
  IC50: 3.5 µM
[7]
  IC50: 18 µM
